Experimental data from patent publication US20190144538A1 (TETRAGENETICS, published 2019).

B1: 19724p1.E6 (Fc fusion, not shown: small tags and cut ends; a dimerising Fc or GST)
scFv (part 1 of 2): ALTQPASVSANLGETVEITCSGGYSDDGSYYYGWYQQKSPGSAPVTVIYENNKRPSDIPSRFSGSLSGSTNTLTITGVRAEDEAVYYCGSWDSSAGIFGAGTTLTVL
scFv (part 2 of 2): MAAVTLDESGGGLQTPGGTLSLVCKASGFTFSSHGMQWVRQAPGKGLEWVAGISRDGSRTRYGAAVKGRATISRDNGQSTVRLQLNNLRAEDTAIYFCAKSAYECDGYSCWTFIAGSIDAWGHGTEVIVS
B2: 1A3 (Fc fusion, not shown: small tags and cut ends; a dimerising Fc or GST)
scFv (part 1 of 2): LDIQMTQSPSSVTASVGEKVTINCKSSQSVVSASNQKSYLNWYQQRPGQSPRLLIYYASTQELGIPDRFSGSGSTTDFTLTISSVQPEDAAVYYCQQAYSAPYNFGSGTRLEIK
scFv (part 2 of 2): QVQLQESGGGLVQPGGSLRLSCAASGFTFSINGMSWVRQAPGKEVEWVSSINSGGEITNYRDSVKGRFTISRDNVKNTLYLQMNSLKPEDTAFYHCVTGIVAYDYWGQGTQVTVSS

How the values were obtained:
[1] = molecular target: human Kv1.3 protein on cells (human, UniProt P22001 1-575); experiment: cell-based or functional assay
[2] = molecular target: human Kv1.3 protein with C-terminal FLAG and 10xHis tags (human) (UniProt P22001); experiment: ELISA, supernatant, dilution 6250
[3] = molecular target: human Kv1.3 protein with C-terminal FLAG and 10xHis tags (human) (UniProt P22001); experiment: ELISA, supernatant, dilution 250
[4] = molecular target: human Kv1.3 protein with C-terminal FLAG and 10xHis tags (human) (UniProt P22001); experiment: ELISA, supernatant, dilution 1250
[5] = molecular target: human Kv1.3 protein with C-terminal FLAG and 10xHis tags (human) (UniProt P22001); experiment: ELISA, supernatant, dilution 50

human Kv1.3 protein with C-terminal FLAG and 10xHis tags (human), sequence (P22001 other isoform, or with tags, fused parts or gaps): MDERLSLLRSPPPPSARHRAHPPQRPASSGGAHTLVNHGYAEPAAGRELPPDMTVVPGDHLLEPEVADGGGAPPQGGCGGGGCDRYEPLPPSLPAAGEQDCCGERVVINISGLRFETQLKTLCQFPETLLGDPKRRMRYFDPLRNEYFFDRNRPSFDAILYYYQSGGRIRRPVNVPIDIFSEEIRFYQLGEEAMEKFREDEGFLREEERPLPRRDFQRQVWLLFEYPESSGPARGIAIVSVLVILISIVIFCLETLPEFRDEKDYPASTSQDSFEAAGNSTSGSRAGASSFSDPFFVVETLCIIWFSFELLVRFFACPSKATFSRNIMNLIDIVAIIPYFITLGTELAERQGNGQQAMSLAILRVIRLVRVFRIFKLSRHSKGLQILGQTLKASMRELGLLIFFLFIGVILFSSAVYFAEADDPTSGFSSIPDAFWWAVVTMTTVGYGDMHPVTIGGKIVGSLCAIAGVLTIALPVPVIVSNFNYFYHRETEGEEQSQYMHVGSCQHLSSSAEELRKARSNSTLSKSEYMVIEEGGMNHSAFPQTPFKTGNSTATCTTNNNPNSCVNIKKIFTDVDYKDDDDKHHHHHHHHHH
human Kv1.3 protein on cells, sequence (P22001 whole entry): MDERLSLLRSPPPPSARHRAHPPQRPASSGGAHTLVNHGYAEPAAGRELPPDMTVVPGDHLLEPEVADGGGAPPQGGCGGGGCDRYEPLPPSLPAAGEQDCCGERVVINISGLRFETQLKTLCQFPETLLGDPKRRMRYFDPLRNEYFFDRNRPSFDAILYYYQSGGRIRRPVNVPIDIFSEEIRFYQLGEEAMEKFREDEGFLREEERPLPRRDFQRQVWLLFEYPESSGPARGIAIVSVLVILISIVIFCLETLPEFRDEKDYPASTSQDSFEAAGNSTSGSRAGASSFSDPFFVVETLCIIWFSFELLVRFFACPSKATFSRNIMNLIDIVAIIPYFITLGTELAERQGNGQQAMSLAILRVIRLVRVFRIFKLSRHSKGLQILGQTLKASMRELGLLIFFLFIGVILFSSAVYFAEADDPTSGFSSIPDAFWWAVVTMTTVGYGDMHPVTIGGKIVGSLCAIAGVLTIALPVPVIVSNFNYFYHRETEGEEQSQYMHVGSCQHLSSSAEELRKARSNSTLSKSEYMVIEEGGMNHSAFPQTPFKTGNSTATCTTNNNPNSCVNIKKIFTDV

Binder	IC50, dose-response of Kv1.3 current block (whole-cell patch clamp) [1] [nM]	ELISA signal [2]	ELISA signal [3]	ELISA signal [4]	ELISA signal [5]
B1	6	0.084	0.074	0.077	0.077
B2	109				
